Measurements published in the DeepSol protein solubility set.

Experiment: soluble on expression in E. coli; label from the status in PepcDB or PDB records

Row | Sequence | soluble on expression in E. coli
1 | FSDFIANHIFMESRCEGIIRITAISLPFMCIHNCLSNYYYSQKESFLPASSQLVEQLVRIGTIILYVRIKNVSTISIADAVTGNIFGEFAAATYCAIPLFFRSIHNKSMMQKLSCSLREYRYIVKYAFPINANQTVLHLLEGAEAILIPAILCMHGLTKDNAISQFGILTGM | not soluble
2 | MATFVRNAWYVAALPEELSEKPLGRTILDTPLALYRQPDGVVAALLDICPHRFAPLSDGILVNGHLQCPYHGLEFDGGGQCVHNPHGNGARPASLNVRSFPVVERDALIWIWPGDPALADPGAIPDFGCRVDPAYRTVGGYGHVDCNYKLLVDNLMDLGHAQYVHRANAQTDAFDRLEREVIVGDGEIQALMKIPGGTPSVLMAKFLRGANTPVDAWNDIRWNKVSAMLNFIAVAPEGTPKEQSIHSRGTHILTPETEASCHYFFGSSRNFGIDDPEMDGVLRSWQAQALVKEDKVVVEAIERRRAYVEANGIRPAMLSCDEAAVRVSREIEKLEQLEAARLEHHHHHH | soluble
3 | MSSGSSNFLLVPIPEYPVLDCVPNKNVKIVVLGASNVGKTALIVRFLTKRFIGDYEANTGALYSRKINLDGEQVSLQVQDTPCVSLQDDADGLYCQEQINRSITGRTVMCSSSPSLTSTATAPSSLSTNMCAESTPAVTSLSSSWETRATFCEPDRSQIPKGRRWRMNWEGYTLRLRPGRTTRASRQLFCTYVRR | not soluble
4 | MNTELQPKLEKSAVNFQAKPRKQKIRKDPNAPFIREKLELPDGHNKLLLHSCCAPCSGEVMEAILASGIEFTIYFYNPNIHPLKEYLIRKEENIRFAKKFGIPFIDADYDRQNWFDRAKGMEWEPERGIRCTMCFDMRFEKAAEYAHKHGFPVFTSCLGISRWKDMNQINGCGHRAAEKYDDVIYWDYNWRKEGGSQRMIEISKRERFYQQEYCGCVYSLRDSNKWREETGRQKIEIGKLYYSAD | not soluble
5 | GMSRAPDTWILTADCPSMLGTVDVVTRYLFEQRCYVTEHHSFDDRQSGRFFIRVEFRQPDDFDEAGFRAGLAERSEAFGMAFELTAPNHRPKVVIMVSKADHCLNDLLYRQRIGQLGMDVVAVVSNHPDLEPLAHWHKIPYYHFALDPKDKPGQERKVLQVIEETGAELVILARYMQVLSPELCRRLDGWAINIHHSLLPGFKGAKPYHQAYNKGVKMVGATAHYINNDLDEGPIIAQGVEVVDHSHYPEDLIAKGRDIECLTLARAVGYHIERRVFLNANRTVVL | soluble
6 | MDERFISFVCLLFTMEFQKYRTMHFPRDVYIGHDVLNRVLDVVDQNSRTRDVIIVTGNTTYELAGKKIVEILASSPYEVHLSFAGEANYENLKKIEEETNDVNAGIIIGVGGGTKIDLAKKLAYDKNLPFISIPTSPSHDGIASPRASLRRNGISYSEEGAMPIGVIADTSVMIKAPYRYLAAGAADVISNISAVKDWKLAHRLRGEEFSSSAAAMSEYSAQEVISQVGEIRKYDESSVWLVTKNILASGTAMAIAGNSRPGSGSEHLFAHALEAAGVNNMLHGEMCAMGTIVSLYLHDDNWQKIRDVFESLGVSVKARDYGLKEEVVIEALRRAHAIRPERYTILGESDMSYDAAVKALELTGII | not soluble
7 | MATIIPTAWQPFKSETPLTTFPFRFPAEWEPQSAILIAWPHANTDWSAHLADVEETYIALVAAITRFQMVIICVLDDDLQTYTEARLRSASVAMQQVRFTVASYNDTWLRDSGPITLIGTNRDFRLLDFRFTGWGGKFEAKADDQLVSVLHANGLFKNTQMHSINFALEGGAIETDGAGTLLTTWRCLHERHPQRTRKTLDANLTAWLAQNRVLWLEHGYLEGDDTDAHIDTLARFASTDSIVYQSCDNTTDSHYAELQAMANELTALRTTEGRAYRLFPLPWTKPILDQDRRLPASYANFLIIEGAVLMPTYDDPADTIAQSVLAEAFP | not soluble
8 | MGSDKIHHHHHHMKEVKIGKDKISVALCTYNGEKFIREQLRSIVGQTILPWQIVVCDDQSTDRTMDIVREFADDYPSIRWMIIRNEVRLGVRRNFEKAIALAEGDYIAPSDQDDIWERNKLEILLHIMREKKVSLVHSNIRYVDVKGREMTERLDFPCSVPLATYLYGLNNVMGCTCLFCASLKDILFPFPIHYYYHDQWLAIMAYHNGGIYLCDHKLVRYRQHADNVVSAICGGGKREGEELGLSYFVGKAEDIYLLLHRRKQIKYSQKDWWRLAWLYVSNRLGLAWLKFKLL | not soluble
9 | KIGYGKANPTTRLWVGGLGPNTSLAALAREFDRFGSIRTIDHVKGDSFAYIQYESLDAAQAACAKMRGFPLGGPDRRLRVDFAK | soluble
10 | LDSANQQASNESIEVRGKIKLGLLPETYEHLQPILFEFQDQYPQVELDIRNINNGFIDMFQQGLDIALHGGMLFDSDIVARKILTLDRCVVASPNYLQTHGTPATLEELSDHQCICFRWPNGNVDNLWHFQEQNVALKPKLISNNIGFIKSSTVLDRGISYIPKLLVKNELESGALVQVLSQYAVTEETGWLLYPQPKTLNQASRLLIEHLCNKIPKLL | soluble
11 | VVPAQHRPPDRPGDPAHDPGRGRRLGIDVGAARIGVACSDPDAILATPVETVRRDRSGKHLRRLAALAAELEAVEVIVGLPRTLADRIGRSAQDAIELAEALARRVSPTPVRLADERLTTVSAQRSLRQAGVRASEQRAVIDQAAAVAILQSWLDERLAAMAGTQEGSDA | not soluble
12 | MGSDKIHHHHHHMLELLEPIAIFTHVARAGSFSAAARRLGISKSKVSTQVADLEHRLGVQLIQRTTRSLSLTEAGHLLYLQGEELLRDAEQAIASVHNLNDATRGVLKVGISQSFGVMHIIPALPSFMAKHPELELQVSLLDHKVDVVSEGLDLLLTMSEQLPLGMVARPLMKCQFLLVASPGYIAQHGEPTRPEQLVDHNCLVYQGEWHEHSMWQFKKGDDYCEIGVSGNFRVDNAPALKSAAISGLGVVYLASYLMEDEITKGTLVPLLKDWQLTHHLPLQAVYPRRKHLAPKVSSFIEFIKDHIGTPPYWDAPYVELFSKRQ | not soluble
13 | MSLKKSLATIRAEERNYFQSPKWFCDFVEKPIQGLEREEGVHRRDPSSIIKVDNLYYVYYTKSYGPHVGFNTGDLNAKVFPWDYSEIWVATSEDGYVWEEKGVAVTRGEAGRYDDRSVFTVEVMKYDGKYYLVYQTVQHPYVNRSFENIAIAWSDNPLGPFQKSDEPILRPTGDGIWDTEEDNRFLVKKKGSFDSHKVHDPLLFHYRDKFYLYYKGEPMGEEIFMGGRETKWGVAIADSIEGPYIRSEYNPITNSGHETCLWQYKEGMAAFLRTDGVEKNTLQFAEDGINFQIMSVIKWGPEACGPYRPDEIITDDPLEGMKWGMSHSLGKPGCPYGCLVRFDINTKQRDIYAARKKYEEGHHHHHH | soluble
14 | MGSDKIHHHHHHMKHTQISRREFLKNIGMTGAGVLLAASPWLSAFSEAVNTSNEKCRLGVIGPGSRGRFLMSFLVQNPKVDIVALCDIYQPSIDEALKLAPKAKVYGDYRELLENNNIDAILVATPLSSHCKIVMDAFDAGKHVFCEKTIGFTMEECFRMYNKHRSTGKIFFTGQQRLFDPRYIKAMEMIHAGTFGEINAIRTFWYRNGDWRRPVPSANLERQINWRLYKEYSKGLMTELACHQLQIGSWALNKLPEKVMGHGAITYWKDGREVYDNVSCLYVFDDGVKMTFDSVISNQFYGLEEQIMGNLGTVEPEKGKYYFESIPPAPGFLQMINDWENKLFDTLPFAGTSWAPETANENKGELILGERPKSDGTSLLLEAFVEAVITRKQPARIAEEGYYASMLCLLGHQALQEEKTLYFPDEYKINYLNHQSKTSEAV | not soluble
15 | MNRTPSLHTKEKKGFIDMHTMWKGSISFGLVNIPIKLYAATEDKDIKLRSLHKEDHAPIKYEKVCTNCEKTLSPDEIVKGYEYVKGKYVVLTDEDLKSLKQEHEEKAVEIVDFVQLQEIDPIYFNRSYFVGPGDNGTKAYTLLREALRSTGKIGIANMTIRSKQQLAILRVYENCIVMESIHYPDEVRS | not soluble
16 | MRIEEFDYELPEELIAKYPAVPRHSARLMVLNRKDQSIKHDTFINLPDYLEEGDLLVFNNTKVIPARLYGRKPTGGRVEVVLTDFIKPDEWKALIGGKKIRPGLVIEVAPDFKVEVLEHIEEGKFRVKLLGEEPLKLIDKYGHIPIPPYLKREEEPIDRVYYQTIFAKEKGAVASPTASLHFSEELLEKLKEKGINFAFITLHVSYGTFKPVKVERVEEHRVDPEYVKIPKETVEKIKETKEKGKRVVAVGTTVVRALETKPFEPFEGWTDLYIYPGFKFKVVDAMITNFHLPRSSLLILVSAFAGREFILKAYREAVEKRYRFYSYGDGMLIL | soluble
17 | MIRKCTDHGYFRGGSCQQCKRPGRYVLDDGREEKLGRFVSGTLRHFPASAGVKMDKYGWIDLNAFCEVMKKRYNWMRKEYLYALVESDEKGRYQISGPMIRARYGHSVNVDLDYDESDTPYVYYGASPEEVDVLLENGIFPIKQRYVHLSTTYEKAAEVALIHTESPVILQVDAFRAQEDGISLKLATDYIVLAEKIPPDYLFVLEDLEHHHHHH | soluble
18 | MAHHHHHHMALPPATLQSPAVPDGQQHLGCSGGSGHLSVAALDQSRTPLYSAERRASLCDESGALAAVSLSADASRPTAANFVKGELIGKGSYGAVYRGMQRSNNRIIAMKEIRLPGVVEQQLRQSEKLAATAASPAGVSSPVLPASNSVKGESALAKEVAAIKRELTLLKQLNHPNIVRYLNDEVVDGTLRIYMDYVSGGSVTAALKSYGSFEEPQAAALCFQLLQGLVYMHRRGIIHRDLKGDNLLLETSSQLKIADLGTAKSIFSSATMTTSIVGTAYFMAPEVLQPSGAAVGTAADIWSVGCCLIEMMTGKPPLSDLPNQFTVMMAIGGSATVPLDKYIPADNTWSDEVLDFISQCLRANPAQRPTAVDLLQHSWFAKFLNVMHAPSMSTPATLDSMLTPTAPPIERPFTLSPQRQMVSPICSPNLTAALTPGYAGPQYSSGQPESSASSHTSRERKGKRDKRVSARRHARYSTSGATSATSRRSQESSQASTPQYSSGTRTRDGSAQSASLPRSHSHPGRQQGPSSKRRAHAHIVGHGLPRDDSRQSFSSEQAMPQHTCTPGSGGAGDGSGENKTKTAFLPAITHNGSVAPSPCGYSLDVSRCSRSLKNSGSSREPTKACLYTTDTENKS | not soluble
19 | GMIKKEGPGWRIIFDSSRDNFSTLIGGETWAIELDKSEWKILVEVVMELCDQYKLVKEQLMGDEDITLELERRPWLAILNGDQYGWNLRLILSASGLFNRGAEVYWPRHVTNNVVNAMRSMWDSDYL | soluble
20 | MGSDKIHHHHHHMTRRAWTLLDGGMGRELKRIGAPFRQPEWSALALFEAPEYVTQVHRAFIAAGARVITTNSYAVVPFHIGEERFARSGRALAELSGRLARGAADEAGASVQVAGSLPPALGSYRPDLFDPARSQAIHRELICGLTPHVDFWLAETQSSLAEARAVHAALDGDGKPLWLSFTLLDPDTEHAVPLLRSGESVQQAVLLALELGASALLFNCSQPESMGAALRSARQVLKQEARELALGVYANAFPPVREDAQANDTLLDIRADLGPEAYLQWAQQWVEEGADIVGGCCGIGPEHIARLDEHLQACKQGME | not soluble
21 | MGSDKIHHHHHHACCQGAASSGNAGKNASRVRIASNDSAKLVPDKALNDASCVLAGLPVDKASGKLYALTRTKEWKNHARYMDQIWNVFRQTAPRLVAFSQTELEDINTRCHTLFYPFGGPDFLFANAFFPEMDTYVLIGLEPAGTAPKVKHPSAETYRLYQNAVSNVLNLSFFNDMDKELANDTIDGVVPIYSLLMARGNRKIVSIQEVWLSETGDLFERKEGDTIRNTCSAGMEVRFFRPGASRLQTLYYFCTDISNEGLQANRPLQAFMDRFDAETTATFVKSASYLMHEPAFSRIRETILQKSSAVVQDDSSIPLSCFDPEVWSVTLYGTFYKPISTFSQYLQPQLRDAYQLGDPNPLNFRIGYARQSNLQVARRK | not soluble
